Data published in the supplement of paper PMC9233669.
Fewer inactive variants are shown than the library holds.

Assays:
biotinyl-Met-oxazolone = experiment: self-aminoacylation, catalytic enhancement (BMO) (fold over background); higher = more active; k-Seq, kA / k0A0; sequences stand for … in GGGAAUGGAUCCACAUCUACGAAUUC…UUCACUGCAGACUUGACGAAGCUG
In short: (§1)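 Mutagenized RNA pools (0.43 μM; 21-nt variable region) were treated with 2–1250 μM of each biotinyl-aminoacyl-oxazolone. Conditions were 50 μL HEPES/NaCl/KCl/MgCl2/CaCl2 buffer, 5% acetonitrile, pH 6.9–7.0, room temperature, 90 minutes. Catalytic enhancement, the median kA relative to the uncatalyzed rate, was derived from streptavidin capture, qPCR and Illumina sequencing.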

biotinyl-Ile-oxazolone = experiment: self-aminoacylation, catalytic enhancement (BIO) (fold over background); higher = more active; k-Seq, kA / k0A0; sequences stand for … in GGGAAUGGAUCCACAUCUACGAAUUC…UUCACUGCAGACUUGACGAAGCUG
In short: as §1

biotinyl-Trp-oxazolone = experiment: self-aminoacylation, catalytic enhancement (BWO) (fold over background); higher = more active; k-Seq, kA / k0A0; sequences stand for … in GGGAAUGGAUCCACAUCUACGAAUUC…UUCACUGCAGACUUGACGAAGCUG
In short: as §1

biotinyl-Val-oxazolone = experiment: self-aminoacylation, catalytic enhancement (BVO) (fold over background); higher = more active; k-Seq, kA / k0A0; sequences stand for … in GGGAAUGGAUCCACAUCUACGAAUUC…UUCACUGCAGACUUGACGAAGCUG
In short: as §1

biotinyl-Phe-oxazolone = experiment: self-aminoacylation, catalytic enhancement (BFO) (fold over background); higher = more active; k-Seq, kA / k0A0; sequences stand for … in GGGAAUGGAUCCACAUCUACGAAUUC…UUCACUGCAGACUUGACGAAGCUG
In short: as §1

biotinyl-Leu-oxazolone = experiment: self-aminoacylation, catalytic enhancement (BLO) (fold over background); higher = more active; k-Seq, kA / k0A0; sequences stand for … in GGGAAUGGAUCCACAUCUACGAAUUC…UUCACUGCAGACUUGACGAAGCUG
In short: as §1

Row | Sequence | self-aminoacylation (biotinyl-Met-oxazolone) | self-aminoacylation (biotinyl-Ile-oxazolone) | self-aminoacylation (biotinyl-Trp-oxazolone) | self-aminoacylation (biotinyl-Val-oxazolone) | self-aminoacylation (biotinyl-Phe-oxazolone) | self-aminoacylation (biotinyl-Leu-oxazolone)
1 | AUUGACCUAGGUCGUCGGGUG [Fam2.2 aminoacylation ribozyme variant] | 1.44 | 1.78 | 2.2 | 1.81 | 10.2 | 1.6
2 | AUUGACCUAGGUUAUCGGGUG [Fam2.2 aminoacylation ribozyme variant] | 4.96 | 4.71 | 6.6 | 4.7 | 29.1 | 5.36
3 | AUUGACCUCGGUCAUCGGGUG [Fam2.2 aminoacylation ribozyme variant] | 4.12 | 3.05 | 3.78 | 3.69 | 20.3 | 4.55
4 | AUUGCCAUGGUCAUCGAGUGA [Fam2.1 aminoacylation ribozyme variant] | 9.29 | 4.75 | 11.6 | 4.81 | 53.5 | 10.1
5 | AUUGCCCGGGUCAUCGAGUGA [Fam2.1 aminoacylation ribozyme variant] | 6.39 | 3.01 | 6.49 | 3.8 | 45.4 | 7.35
6 | AUUGCCCUAGUCAUCGAGUGA [Fam2.1 aminoacylation ribozyme variant] | 5.83 | 2.73 | 6.87 | 3.21 | 23.6 | 4.97
7 | AUUGCCCUCGUCAUCGAGUGA [Fam2.1 aminoacylation ribozyme variant] | 3.34 | 2.21 | 3.9 | 2.08 | 17.4 | 3.58
8 | AUUGCCCUGGUCACCGAGUGA [Fam2.1 aminoacylation ribozyme variant] | 9.41 | 3.77 | 9.72 | 4.68 | 70 | 10.8
9 | AUUGCCCUGGUCAUAGAGUGA [Fam2.1 aminoacylation ribozyme variant] | 9.01 | 4.05 | 10.9 | 4.65 | 57.9 | 8.58
10 | AUUGCCCUGGUCAUCCAGUGA [Fam2.1 aminoacylation ribozyme variant] | 6.42 | 3.7 | 7.66 | 4.02 | 44.4 | 7.38
11 | AUUGCCCUGGUCAUCGAGUGA [Fam2.1 aminoacylation ribozyme variant] | 53.1 | 20.6 | 60 | 23.7 | 367 | 51.2
12 | AUUGCCCUGGUCAUCGAGUUA [Fam2.1 aminoacylation ribozyme variant] | 4.84 | 2.31 | 4.44 | 2.64 | 8.37 | 5.24
13 | AUUGCCCUGGUCAUCUAGUGA [Fam2.1 aminoacylation ribozyme variant] | 8.83 | 3.81 | 10.3 | 4.24 | 70.6 | 8.79
14 | AUUGCCCUGGUCAUUGAGUGA [Fam2.1 aminoacylation ribozyme variant] | 8.44 | 3.72 | 9.51 | 4.2 | 64.3 | 7.3
15 | AUUGCCCUGGUUAUCGAGUGA [Fam2.1 aminoacylation ribozyme variant] | 8.87 | 4.09 | 10.7 | 4.17 | 58.7 | 9.13
16 | AUUGCCUUGGUCAUCGAGUGA [Fam2.1 aminoacylation ribozyme variant] | 8.02 | 4.46 | 8.73 | 4.83 | 48.9 | 8.79
17 | AUUGCUCUGGUCAUCGAGUGA [Fam2.1 aminoacylation ribozyme variant] | 6.02 | 3.33 | 6.59 | 3.3 | 6.13 | 5.71
18 | AUUGGCCUAGGUCAUCGGGUG [Fam2.2 aminoacylation ribozyme variant] | 36.9 | 18.3 | 27.4 | 14.9 | 277 | 48
19 | AUUUACCUAAGUCAUCGGGUG [Fam2.2 aminoacylation ribozyme variant] | 7.89 | 4.85 | 7.89 | 4.66 | 64.2 | 11.1
20 | AUUUACCUAGAUCAUCGGGUG [Fam2.2 aminoacylation ribozyme variant] | 2.35 | 2.17 | 3.38 | 1.88 | 12.3 | 3
21 | AUUUACCUAGGGCAUCGGGUG [Fam2.2 aminoacylation ribozyme variant] | 3.65 | 2.92 | 3.7 | 3.12 | 16.7 | 3.47
22 | AUUUACCUAGGUAAUCGGGUG [Fam2.2 aminoacylation ribozyme variant] | 2.75 | 1.85 | 2.92 | 1.78 | 17.3 | 3.42
23 | AUUUACCUAGGUCACCGGGUG [Fam2.2 aminoacylation ribozyme variant] | 4.23 | 3.61 | 3.83 | 3.08 | 26.5 | 6.09
24 | AUUUACCUAGGUCAUCGGGUA [Fam2.2 aminoacylation ribozyme variant] | 29.5 | 14.1 | 22.2 | 12.3 | 218 | 39.9
25 | AUUUACCUAGGUGAUCGGGUG [Fam2.2 aminoacylation ribozyme variant] | 2.64 | 2.46 | 2.89 | 2.45 | 15 | 3.24
26 | AUUUCACUGGUCAUCGAGUGA [Fam2.1 aminoacylation ribozyme variant] | 4.7 | 2.99 | 6.42 | 2.85 | 19.9 | 4.92

Row | Sequence | self-aminoacylation (biotinyl-Met-oxazolone) | self-aminoacylation (biotinyl-Ile-oxazolone) | self-aminoacylation (biotinyl-Trp-oxazolone) | self-aminoacylation (biotinyl-Val-oxazolone) | self-aminoacylation (biotinyl-Phe-oxazolone) | self-aminoacylation (biotinyl-Leu-oxazolone)
27 | AUUUCCCCGGUCAUCGAGUGA [Fam2.1 aminoacylation ribozyme variant] | 5.69 | 3.34 | 8.04 | 3.65 | 32.5 | 5.8
28 | AUUUCCCUGGUCAACGAGUGA [Fam2.1 aminoacylation ribozyme variant] | 6.93 | 3.9 | 8.23 | 3.91 | 42.4 | 6.99
29 | AUUUCCCUGGUCAUAGAGUGA [Fam2.1 aminoacylation ribozyme variant] | 9.7 | 4.67 | 12.2 | 4.88 | 61.5 | 9.78
30 | AUUUCCCUGGUCAUCGAGUAA [Fam2.1 aminoacylation ribozyme variant] | 2.39 | 1.56 | 2.37 | 1.83 | 3.9 | 2.52
31 | AUUUCCCUGGUCAUCGAGUGA [Fam2.1 aminoacylation ribozyme variant] | 14.3 | 7.41 | 16.5 | 8.47 | 27.4 | 14.3
32 | AUUUCCCUGGUCAUUGAGUGA [Fam2.1 aminoacylation ribozyme variant] | 8.36 | 4.47 | 10 | 4.4 | 63.1 | 8.38
33 | AUUUCCCUGGUCGUCGAGUGA [Fam2.1 aminoacylation ribozyme variant] | 1.12 | 1.06 | 1.55 | 1.08 | 4.18 | 1.21
34 | AUUUCCCUGGUCUUCGAGUGA [Fam2.1 aminoacylation ribozyme variant] | 6.94 | 4.33 | 9.21 | 4.6 | 47.9 | 7.28
35 | AUUUCCCUUGUCAUCGAGUGA [Fam2.1 aminoacylation ribozyme variant] | 7.14 | 3.62 | 8.99 | 4.17 | 46 | 7.73
36 | AUUUCUCUGGUCAUCGAGUGA [Fam2.1 aminoacylation ribozyme variant] | 5.74 | 3.1 | 7.1 | 3.2 | 20.5 | 5.82
37 | AUUUUCCUAGGUCAUCGGGUG [Fam2.2 aminoacylation ribozyme variant] | 6.79 | 4.64 | 6.89 | 4.16 | 30.9 | 9.58
38 | CAACACUUCAAGCAAGCGGUC [Fam1B.1 aminoacylation ribozyme variant] | 1.24 | 1.1 | 0.593 | 0.953 | 0.831 | 1.25
39 | CAACACUUCAAGCAAUCAGUC [Fam1B.1 aminoacylation ribozyme variant] | 0.716 | 0.858 | 4.78 | 0.772 | 14.5 | 0.923
40 | CAACACUUCAAGCAAUCGCUC [Fam1B.1 aminoacylation ribozyme variant] | 1.19 | 1.85 | 1.54 | 1.57 | 0.965 | 2.04
41 | CAACACUUCAAGCCAUCGGUC [Fam1B.1 aminoacylation ribozyme variant] | 1.35 | 1.35 | 1.24 | 1.48 | 1.04 | 1.74
42 | CAACACUUCAAGCGAUCGGUC [Fam1B.1 aminoacylation ribozyme variant] | 1.29 | 1.27 | 1.81 | 1.25 | 1.94 | 1.55
43 | CAACACUUGAAGCAAUCGGUC [Fam1B.1 aminoacylation ribozyme variant] | 0.731 | 0.911 | 0.696 | 0.828 | 0.601 | 0.842
44 | CAACACUUUAAGCAAUCGGUC [Fam1B.1 aminoacylation ribozyme variant] | 0.762 | 0.96 | 0.886 | 0.846 | 1.03 | 0.854
45 | CAACAGUUCAAGCAAUCGGUC [Fam1B.1 aminoacylation ribozyme variant] | 1.28 | 1.22 | 3.42 | 1.15 | 4.54 | 1.38
46 | CAACUUCAAAAAAUCGGUCUG [Fam1A.1 aminoacylation ribozyme variant] | 1.15 | 1.7 | 11.9 | 1.31 | 14.8 | 1.46
47 | CAACUUCAAACAACCGGUCUG [Fam1A.1 aminoacylation ribozyme variant] | 1.11 | 1.24 | 1.75 | 1.32 | 3.54 | 1.14
48 | CAACUUCAAACAAGCGGUCUG [Fam1A.1 aminoacylation ribozyme variant] | 1.24 | 1.42 | 1.3 | 1 | 1.19 | 1.12
49 | CAACUUCAAACAAUCGGUAUG [Fam1A.1 aminoacylation ribozyme variant] | 1.31 | 1.21 | 21 | 1.04 | 33.3 | 1.61
50 | CAACUUCAAACAAUCGGUCUU [Fam1A.1 aminoacylation ribozyme variant] | 1.53 | 1.59 | 27.7 | 1.5 | 45.8 | 2.43
51 | CAACUUCAAACAUUCGGUCUG [Fam1A.1 aminoacylation ribozyme variant] | 1.34 | 1.53 | 1.74 | 1.57 | 11.5 | 1.5
